Measurements taken from patent US20210054027.

Experiments:
[1] = test system: KFDFCyclic
[2] = test system: KLDLCyclic
[3] = test system: Rho-KFDFCyclic
[4] = test system: Rho-KLDLCyclic
Chain of Rho-KLDLCyclic (chain, as listed by the source): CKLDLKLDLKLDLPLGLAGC

Chain of MMP-9 (recombinant human catalytic domain) (chain, as listed by the source): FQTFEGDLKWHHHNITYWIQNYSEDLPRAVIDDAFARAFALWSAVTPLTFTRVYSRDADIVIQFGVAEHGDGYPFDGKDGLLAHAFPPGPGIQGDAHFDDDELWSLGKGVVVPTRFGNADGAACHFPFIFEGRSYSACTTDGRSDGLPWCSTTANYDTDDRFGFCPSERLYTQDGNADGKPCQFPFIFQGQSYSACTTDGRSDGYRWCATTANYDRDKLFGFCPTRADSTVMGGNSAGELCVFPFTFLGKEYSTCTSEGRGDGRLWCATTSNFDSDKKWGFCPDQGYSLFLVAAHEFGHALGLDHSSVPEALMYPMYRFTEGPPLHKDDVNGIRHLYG
Chain of Rho-KFDFCyclic (chain, as listed by the source): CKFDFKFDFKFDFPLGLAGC

Substance: MMP-9 (recombinant human catalytic domain)
- enzymatic cleavage of progelator (LCMS, 5 hr) [1]: KFDFCyclic and KLDLCyclic (data not shown) were treated with MI-associated enzymes, MMP-9 and elastase to confirm enzyme responsiveness
- enzymatic cleavage of progelator (data not shown) [2]: KFDFCyclic and KLDLCyclic (data not shown) were treated with MI-associated enzymes, MMP-9 and elastase to confirm enzyme responsiveness
- enzymatic cleavage of progelator (visible aggregation, TEM fibers) [3]: Enzymatic cleavage by active MMP-9 and elastase (FIGS. 20a-20d) induced visible aggregation in the reaction vial and entangled fibrous meshes by TEM, whereas denatured enzymes elicited no response
- enzymatic cleavage of progelator (visible aggregation, TEM fibers) [4]: Enzymatic cleavage by active MMP-9 and elastase (FIGS. 20a-20d) induced visible aggregation in the reaction vial and entangled fibrous meshes by TEM, whereas denatured enzymes elicited no response

Substance: Thermolysin
- enzymatic cleavage of progelator (TEM fibers, CD) [3]: Despite the promiscuous activity of thermolysin, incubation with Rho-KLDLCyclic and Rho-KFDFCyclic induced fiber formation by TEM
- enzymatic cleavage of progelator (TEM fibers, CD) [4]: Despite the promiscuous activity of thermolysin, incubation with Rho-KLDLCyclic and Rho-KFDFCyclic induced fiber formation by TEM
